In the test the target is G. gallus FANCD2 (G. gallus, UniProt Q68Y81 1-1439). The test can be described thus: cross-linking.

Where a chain is given by its changes, count along the chain named. Names may count otherwise.

Results on two molecules are retold here after doi:10.1101/2024.09.02.610668 (bioRxiv, 2024).

G. gallus FANCD2, sequence (Q68Y81 whole entry): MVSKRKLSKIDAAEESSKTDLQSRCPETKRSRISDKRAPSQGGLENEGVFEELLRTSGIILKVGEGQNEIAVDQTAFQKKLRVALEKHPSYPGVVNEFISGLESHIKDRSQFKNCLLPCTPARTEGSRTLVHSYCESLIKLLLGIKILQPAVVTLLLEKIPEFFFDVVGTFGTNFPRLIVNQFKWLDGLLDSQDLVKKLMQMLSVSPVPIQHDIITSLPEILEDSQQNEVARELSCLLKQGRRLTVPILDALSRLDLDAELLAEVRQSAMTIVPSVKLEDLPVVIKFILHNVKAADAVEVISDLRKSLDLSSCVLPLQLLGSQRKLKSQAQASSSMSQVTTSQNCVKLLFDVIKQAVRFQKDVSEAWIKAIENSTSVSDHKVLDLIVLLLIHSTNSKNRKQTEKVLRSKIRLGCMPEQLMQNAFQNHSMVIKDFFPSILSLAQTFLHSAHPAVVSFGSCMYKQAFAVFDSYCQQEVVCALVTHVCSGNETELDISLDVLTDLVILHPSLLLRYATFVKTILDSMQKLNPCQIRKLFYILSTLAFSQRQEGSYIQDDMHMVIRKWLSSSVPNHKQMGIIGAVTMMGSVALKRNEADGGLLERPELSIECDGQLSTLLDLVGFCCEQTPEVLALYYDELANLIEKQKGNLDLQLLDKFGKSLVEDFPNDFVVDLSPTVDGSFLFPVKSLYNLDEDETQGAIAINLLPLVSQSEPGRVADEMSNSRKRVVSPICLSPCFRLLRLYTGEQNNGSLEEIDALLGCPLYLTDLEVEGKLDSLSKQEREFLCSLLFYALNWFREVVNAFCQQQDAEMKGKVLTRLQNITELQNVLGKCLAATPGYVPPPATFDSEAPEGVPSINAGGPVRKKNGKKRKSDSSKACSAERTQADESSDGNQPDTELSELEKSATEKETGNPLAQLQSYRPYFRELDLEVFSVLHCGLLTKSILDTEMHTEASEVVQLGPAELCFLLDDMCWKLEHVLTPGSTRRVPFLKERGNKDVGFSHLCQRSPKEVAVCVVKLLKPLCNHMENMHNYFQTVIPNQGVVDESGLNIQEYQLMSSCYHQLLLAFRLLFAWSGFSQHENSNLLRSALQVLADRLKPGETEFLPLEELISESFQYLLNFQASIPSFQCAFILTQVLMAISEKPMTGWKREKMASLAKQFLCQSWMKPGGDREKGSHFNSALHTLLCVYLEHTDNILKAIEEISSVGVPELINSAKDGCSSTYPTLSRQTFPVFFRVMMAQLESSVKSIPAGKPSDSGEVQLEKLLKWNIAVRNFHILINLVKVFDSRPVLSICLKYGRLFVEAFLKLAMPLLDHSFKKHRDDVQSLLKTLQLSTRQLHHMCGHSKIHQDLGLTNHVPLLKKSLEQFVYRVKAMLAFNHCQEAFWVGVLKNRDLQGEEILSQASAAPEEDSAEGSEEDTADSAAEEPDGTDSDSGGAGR

B1: G. gallus FANCI, wild type (natural protein, UniProt B0I564 1-1338, looked up)
chain: MAQRILQLAAEGSPERLQEALQGLTEGELGDMVTRQALRGRETAALLKGIFKGSPCSQQSGVLRRLQVYKHCVSLVESGDLHVGKVSEIIGLLMLEARQLPGHALAELATLFVEVIKRGSLSNGKSLELFSTVLTALSNSKESLAYGKGELNGEEFKKQLINTLCSSKWDPQCVIHLANMFRDIPLSGEELQFVVEKVLRMFSKLDLQEIPPLVYQLLLLSAKGSKKTVLEGIISFFNQLDKRQKEEQRVPQSADLEVATVPLDQLRHVEGTVILHIVSAINLDQDIGEELIKHLKTEQQKDPGKALCPFSVSLLLSTAVKHRLQEQIFDFLKTSITRSCKDLQILQASKFLQDLCPQQYDVTAVILEVVKNSAFGWDHVTQGLVDLGFSLMESYEPKKSFGGKAAETNLGLSKMPAQQACKLGASILLETFKVHEPIRSDILEQVLNRVLTKAASPVSHFIDLLSNIVVSAPLVLQNSSSRVTETFDNLSFLPIDTVQGLLRAVQPLLKVSMSVRDSLILVLQKAIFSRQLDARKAAVAGFLLLLRNFKILGSLTSSQCSQAIGATQVQADVHACYNSAANEAFCLEILGSLRRCLSQQADVRLMLYEGFYDVLRRNSQLASSIMETLLSQIKQYYLPQQDLLPPLKLEGCIMAQGDQIFLQEPLAHLLCCIQHCLAWYKSTVHLCKGAEDEEEEEDVGFEQNFEEMLESVTRRMIKSELEDFELDKSADFSPSSGVGVKNNIYAIQVMGICEVLIEYNFKIGNFSKNKFEDVLGLFTCYNKLSEILKEKAGKNKSTLGNRIARSFLSMGFVSTLLTALFRDNAQSHEESLAVLRSSTEFMRYAVSVALQKVQQLEEMGQTDGPDGQNPEKMFQNLCKITRVLLWRYTSIPTAVEESGKKKGKSISLLCLEGLLRIFNTMQQLYAARIPQFLQALDITDGDAEEADINVTEKAAFQIRQFQRSLVNQLSSAEDDFNSKETQLLITILSTLSKLLDPGSQQFLQFLTWTVKICKENALEDLSCCKGLLTLLFSLHVLYKSPVSLLRELAQDIHACLGDIDQDVEIESRSHFAIVNVKTAAPTVCLLVLGQADKVLEEVDWLIKRLTILGSDTSEDSTQASNQTQALEKGVILQLGTLLTVFHELVQTALPAGSCVDSLLRSLSKTYAILTSLIKHYIQACRSTSNTVPGRLEKLVKLSGSHLTPQCYSFITYVQNIHSESLSFAEEKKKKKKEDETAVVSTVMAKVLRDTKPIPNLIFAIEQYEKFLIHLSKKSKVNLMQYMKLSTSRDFRINASMLDSVLQEQNTEDAENEPDNNQSGTAEQPDENQEPQKKRRRKK
As to B1, the binding result is recorded as “binds”.

B2: G. gallus FANCI, phosphomimetic S558D, S561D, T567D (natural protein, UniProt B0I564 1-1338, looked up)
chain: B1 chain with S558D, S561D, T567D
Regarding B2, the binding result is “binds”.
